In publication PMC5320007, “PpEst is a novel PBAT degrading polyesterase identified by proteomic screening of Pseudomonas pseudoalcaligenes” (Applied Microbiology and Biotechnology, 2016):

What was measured:
[1] = molecular target: T1, PpEst (Ectopseudomonas oleovorans, UniProt W6R2Y2); test: 4-NPB hydrolysis inhibition, […] nm; assay type: biochemical
T1 construct: gene tesA

[2] = substrate: CCCC(=O)Oc1ccc([N+](=O)[O-])cc1; test: purified protein; assay type: biochemical, Ectopseudomonas oleovorans; conditions: 20 mM Tris-HCl pH 8.0, 150 mM NaCl, 0.1% Triton X-100, 25 °C, 'Exponential Rise to maximum' fit

Molecule | Ki [1] | Km [2] | kcat [2]
O=C(O)c1ccc(C(=O)OCCCCO)cc1 [BuTA, 4-(4-hydroxybutoxycarbonyl)benzoic acid] | 670 µM |  | 
PpEst (Ectopseudomonas oleovorans CECT 5344) (protein) GTLLVVGDSISAAFGLDSRQGWVALLEKRLSEEGFEHSVVNASISGDTSAGGAARLSALLAEHKPELVIIELGGNDGLRGQPPAQLQQNLASMVEQSQQAGAKVLLLGMKLPPNYGVRYTTAFAQVFTDLAEQKQVSLVPFFLEGVGGVPGMMQADGIHPAEAAQEILLDNVWPTLKPML |  | 4.85 mM | 1.98 s⁻¹
